Measurements published in PMC7969032, “Tandem RNA binding sites induce self-association of the stress granule marker protein TIA-1”.

T1: TIA-1 full length (short isoform, p40) (human, UniProt P31483-2 1-375)
T1 sequence: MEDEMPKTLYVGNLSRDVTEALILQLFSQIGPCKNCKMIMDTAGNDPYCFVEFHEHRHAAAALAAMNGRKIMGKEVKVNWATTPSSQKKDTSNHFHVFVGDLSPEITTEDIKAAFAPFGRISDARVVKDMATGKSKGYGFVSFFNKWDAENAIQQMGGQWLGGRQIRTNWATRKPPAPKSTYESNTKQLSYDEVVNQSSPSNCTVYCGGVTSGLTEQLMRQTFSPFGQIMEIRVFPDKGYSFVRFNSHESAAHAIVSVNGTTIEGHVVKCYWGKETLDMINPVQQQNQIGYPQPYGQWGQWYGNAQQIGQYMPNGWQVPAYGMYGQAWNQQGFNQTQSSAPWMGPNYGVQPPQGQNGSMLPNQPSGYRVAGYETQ


How the values were obtained:
[1] = molecular target: T1, TIA-1 full length (short isoform, p40); test: co-sedimentation with condensed phase (PAGE); 4:1 TIA-1:TC site, 10 uM TIA-1; FA: 1 nM Fl-TC1; RRM23 in 10 mM HEPES pH 7.2, 50 mM NaCl, 1 mM DTT (legend: 20 mM HEPES); full-length TIA-1 in 20 mM sodium phosphate, 60 mM KCl, 0.5 M arginine-HCl, 1 mM MgCl2, 2 mM DTT, 0.5 mM EDTA, pH 7; Csat at room temperature; settings: protein: recombinant; tags: His-tag removed by TEV (untagged)
[2] = molecular target: T1, TIA-1 full length (short isoform, p40); test: fluorescence anisotropy; 0.5 M arginine-HCl, 60 mM KCl, 1 mM MgCl2; KD not in text; FA: 1 nM Fl-TC1; RRM23 in 10 mM HEPES pH 7.2, 50 mM NaCl, 1 mM DTT (legend: 20 mM HEPES); full-length TIA-1 in 20 mM sodium phosphate, 60 mM KCl, 0.5 M arginine-HCl, 1 mM MgCl2, 2 mM DTT, 0.5 mM EDTA, pH 7; Csat at room temperature; settings: protein: recombinant; tags: His-tag removed by TEV (untagged); label: 5'-fluorescein
[3] = molecular target: T1, TIA-1 full length (short isoform, p40); test: SAXS; 500 mM arginine; SASDJL5; FA: 1 nM Fl-TC1; RRM23 in 10 mM HEPES pH 7.2, 50 mM NaCl, 1 mM DTT (legend: 20 mM HEPES); full-length TIA-1 in 20 mM sodium phosphate, 60 mM KCl, 0.5 M arginine-HCl, 1 mM MgCl2, 2 mM DTT, 0.5 mM EDTA, pH 7; Csat at room temperature; settings: protein: recombinant; tags: His-tag removed by TEV (untagged)
[4] = molecular target: T1, TIA-1 full length (short isoform, p40); test: SAXS; 500 mM arginine; SASDJK5; FA: 1 nM Fl-TC1; RRM23 in 10 mM HEPES pH 7.2, 50 mM NaCl, 1 mM DTT (legend: 20 mM HEPES); full-length TIA-1 in 20 mM sodium phosphate, 60 mM KCl, 0.5 M arginine-HCl, 1 mM MgCl2, 2 mM DTT, 0.5 mM EDTA, pH 7; Csat at room temperature; settings: protein: recombinant; tags: His-tag removed by TEV (untagged)

Binder | binding result [1] | other results
TC7 (ssDNA) DNA: TTTTTACTCCAATTTTTACTCCAATTTTTACTCCAATTTTTACTCCAATTTTTACTCCAATTTTTACTCCAATTTTTACTCC | binds | –
TTTTTACTCC (ssDNA) [TC1 (5'-fluorescein)] | – | binding result [2]: binds
TTTTTACTCCAATTTTTACTCC (ssDNA) [TC2] | binds | –
TC9 (ssDNA) DNA: TTTTTACTCCAATTTTTACTCCAATTTTTACTCCAATTTTTACTCCAATTTTTACTCCAATTTTTACTCCAATTTTTACTCCAATTTTTACTCCAATTTTTACTCC | binds | –
TTTTTACTCCAATTTTTACTCCAATTTTTACTCC (ssDNA) [TC3] | binds | –
TC5 (ssDNA) DNA: TTTTTACTCCAATTTTTACTCCAATTTTTACTCCAATTTTTACTCCAATTTTTACTCC | binds | –
UUUUUACUCC (ssRNA) [UC1] | – | binding result [3]: binds
TTTTTACTCC (ssDNA) [TC1] | – | binding result [4]: binds
